Experiments:
full length human DLL4 [1] = target: T1, full length human DLL4 (human, UniProt Q9NR61 27-685); experiment: FACS titration, HEK293 cells with human DLL4
T1 construct: whole, on cells; also called native DLL4 expressed in HEK293 cells
Experimental: The binding affinities of the purified antibodies for DLL4 was estimated using is both FACS and BIAcore techniques. […] The cells were then washed and incubated with goat anti-human IgG-Fc-Cy5+5 μg/mL 7-Amino-Actinomycin (7AAD) for 30 minutes at 4° C.
In this equation, F=mean fluorescence, LT=total molecular mAb concentration, P′=proportionality constant that relates arbitrary fluorescence units to bound mAb, M=cellular concentration in molarity, n=number of receptors per cell, B=background signal, and KD=equilibrium dissociation constant. For each mAb titration curve an estimate for KD is obtained as P′, n, B, and KD are allowed to float freely in the nonlinear analysis. Table 20 summarizes the affinity estimates for the anti-DLL4 antibodies for human and cynomolgus monkey DLL4 derived using the methodology described above

full length human DLL4 [2] = target: T1, full length human DLL4; experiment: FACS competition vs human Notch1/Fc, HEK293 cells with human DLL4
Experimental: (§1) Further experiments were performed on selected antibodies using HEK293 cells that were stably transfected with either human, mouse or cynomolgus monkey DLL4 using retroviral constructs. In these experiments, anti-DLL4 antibodies (final concentration: 10-0.01 μg/ml) diluted in PBS containing 2% FCS were added to DLL4-expressing HEK 293 cells (50000 cells/well diluted in PBS containing 2% FCS) and incubated for 1 h at 4° C. Subsequently, Alexa-647 labeled human, rat or APC labeled mouse Notch1/Fc (e.g. R&D Systems, catalog #3647-TK-050, 1057-TK-050, 5267-TK-050, respectively) was added at a final concentration of 0.01-0.5 μg/ml and plates were incubated for a further 2 h at 4° C. prior to washing and reading on a FACSCalibur instrument.

[3] = target: T2, human soluble DLL4 (R&D systems catalog #1056-D4-050) (human, UniProt Q9NR61 27-524); experiment: Biacore T100, antibody immobilised, soluble human DLL4 as analyte
T2 construct: Catalog number as printed; perhaps the same product as #1506-D4; also called antigen DLL4
T2 sequence (Q9NR61 27-524 limits assumed): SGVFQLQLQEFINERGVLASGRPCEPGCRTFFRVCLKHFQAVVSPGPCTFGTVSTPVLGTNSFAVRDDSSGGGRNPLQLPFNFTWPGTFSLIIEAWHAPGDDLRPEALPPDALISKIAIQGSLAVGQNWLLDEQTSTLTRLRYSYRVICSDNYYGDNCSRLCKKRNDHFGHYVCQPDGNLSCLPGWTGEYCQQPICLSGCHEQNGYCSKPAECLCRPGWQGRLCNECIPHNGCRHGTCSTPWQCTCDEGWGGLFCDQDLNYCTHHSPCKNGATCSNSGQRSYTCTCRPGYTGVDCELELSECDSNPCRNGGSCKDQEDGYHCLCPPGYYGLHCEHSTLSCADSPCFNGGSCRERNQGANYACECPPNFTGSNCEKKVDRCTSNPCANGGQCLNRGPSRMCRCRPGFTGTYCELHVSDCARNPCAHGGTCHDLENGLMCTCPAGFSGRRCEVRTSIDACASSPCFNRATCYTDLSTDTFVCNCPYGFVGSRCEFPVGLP
Experimental: For Biacore analysis, each purified anti-DLL4 antibody was immobilized on a CM5 sensor chip within a T100 using standard amine coupling. Immobilization levels were kept below 200 RU. The concentration of DLL4 was determined by UV-VIS spectroscopy using a molar absorptivity at 280 nm of 110, 440 M⁻¹cm⁻¹, which was calculated from the sequence of the protein using a method developed by Pace et al. (G. R. Grimsley and C. N. Pace (2003) in Current Protocols in Protein Science (John Wiley & Sons, Inc.), 3.1.1-3.1.9). The antigen DLL4 (R&D systems; human catalog #1056-D4-050 or mouse, catalog #1389-D4-050) was diluted to a starting concentration of 32-64 nM and tested in a 3-fold dilution series in triplicate. The running buffer contained HBS-P with 0.1 mg/ml BSA and binding responses were collected at 23° C. Bound complexes were regenerated with a 15 s pulse of 10 mM of sodium hydroxide. The response data were globally fitted with a simple 1:1 interaction model and Table 20 summarizes the kₐ, kd and KD estimates obtained for the anti-DLL4 antibodies when binding to human soluble DLL4 was assessed.

full length human DLL4 [4] = target: T1, full length human DLL4; experiment: FACS binding, HEK293 cells with human DLL4
Experimental: (§2) The activity of the mutated antibodies was assessed in two ways: firstly, the ability of the antibodies to block the binding of soluble Notch1/Fc to full length human DLL4 stably expressed in HEK293 cells as described in Example 3 was determined and, secondly, the binding of the antibodies to the same cell line used in the receptor-ligand competition studies was determined. For the binding studies, HEK293 cells stably overexpressing human DLL4 were resuspended in PBS containing 2% FCS at a concentration of 50,000 cells/well and incubated with titrations of antibody (final concentrations 0.01-10 μg/ml) for 1 h at 4° C. The cells were then washed and incubated with 0.31 μg/ml anti-human IgG-Fc-FITC (BD Pharmingen, cat#555786) for 30 minutes at 4° C. Bound […] was detected using FACS analysis. Results of these studies are summarized in Table 23, which show the effects of specific mutations to sequences of 9G8 and 2H10 on the ability of the antibodies to compete with Notch1 for binding to human DLL4 or to bind to human DLL4 relative to unmutated antibodies.

full length human DLL4 [5] = target: T1, full length human DLL4; experiment: FACS competition vs Notch1/Fc, HEK293 cells with human DLL4
Experimental: as §1, §2

T1 sequence (Q9NR61 27-685): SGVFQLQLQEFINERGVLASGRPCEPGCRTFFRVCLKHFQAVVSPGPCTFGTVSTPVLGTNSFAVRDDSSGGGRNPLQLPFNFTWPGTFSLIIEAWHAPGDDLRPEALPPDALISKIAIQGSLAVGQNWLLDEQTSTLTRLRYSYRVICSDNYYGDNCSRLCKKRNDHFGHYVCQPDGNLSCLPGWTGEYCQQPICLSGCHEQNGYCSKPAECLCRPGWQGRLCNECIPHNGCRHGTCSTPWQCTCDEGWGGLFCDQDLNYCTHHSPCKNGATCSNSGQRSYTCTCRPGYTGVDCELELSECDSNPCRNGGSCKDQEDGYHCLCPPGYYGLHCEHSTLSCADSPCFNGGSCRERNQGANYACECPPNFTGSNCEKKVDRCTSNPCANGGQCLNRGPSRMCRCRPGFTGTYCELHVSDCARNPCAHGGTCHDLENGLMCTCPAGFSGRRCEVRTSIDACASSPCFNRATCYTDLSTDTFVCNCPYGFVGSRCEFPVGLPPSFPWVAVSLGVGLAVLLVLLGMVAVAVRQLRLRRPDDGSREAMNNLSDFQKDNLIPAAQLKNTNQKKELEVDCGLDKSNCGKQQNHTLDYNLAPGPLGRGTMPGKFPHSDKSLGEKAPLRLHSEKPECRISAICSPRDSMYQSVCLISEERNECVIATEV

Row | Binder | Kd (full length human DLL4 [1]) | IC50 (full length human DLL4 [2]) | Kd [3] | koff [3] | kon [3] | EC50 (full length human DLL4 [4]) | IC50 (full length human DLL4 [5])
1 | 21H3 IgG1 (antibody, V domains shown, Formatted as IgG1) VH: QVQLVQSGAEVKKPGASVKVSCKASGYTFTNYGITWVRQAPGQGPEWMGWISAYNGNTNYAQKLQDRVTVTTDTSTSTAYMELRSLRSDDTAVYYCARDRVPRIPVTTEAFDIWGQGTMVTVSS VL: QSVLTQPPSASGTPGQRVTISCSGSSSNIGSYFVYWYQQLPGTAPKLLIYRNNQRPSGVPDRFSGSESGTSASLAISGLRSEDEADYYCAAWDDSLSGHWVFGGGTRLTVL | 103 pM | 570 pM | 594 pM | 0.000171 s⁻¹ | 288000 M⁻¹ s⁻¹ | – | –
2 | 4B4 IgG1 (antibody, V domains shown, Formatted as IgG1) VH: QVLLIQSGAEVKKPGASVQVSCKASGYTFTNYGVIWVRQAPGQGLEYMGWISAYNGNTNYAQKLQDRVTMTSDTSTTTAYMELRSLRSDDTAVYYCARELGSSFDYWGQGTLVTVSS VL: SYELTQPPSVSVSPGQTARITCSGDALPKKYAYWYQQKSGQAPVLVIYEDIKRPSGIPERFSGSSSGTMATLTISGAQVEDEADYYCFSTDNSGDHSVFGGGTKLTVL | 157 pM | 850 pM | 170 pM | 2.01e-05 s⁻¹ | 118000 M⁻¹ s⁻¹ | – | –
3 | 4B4 IgG2 (antibody, V domains shown, Formatted as IgG2) VH: QVLLIQSGAEVKKPGASVQVSCKASGYTFTNYGVIWVRQAPGQGLEYMGWISAYNGNTNYAQKLQDRVTMTSDTSTTTAYMELRSLRSDDTAVYYCARELGSSFDYWGQGTLVTVSS VL: SYELTQPPSVSVSPGQTARITCSGDALPKKYAYWYQQKSGQAPVLVIYEDIKRPSGIPERFSGSSSGTMATLTISGAQVEDEADYYCFSTDNSGDHSVFGGGTKLTVL | 232 pM | 1190 pM | 336 pM | 3.6e-05 s⁻¹ | 107000 M⁻¹ s⁻¹ | – | –
4 | 2H10 IgG2 VH wt/VL wt (antibody, V domains shown, IgG2, transiently expressed) VH: QVQLVESGGGVVQPGRSLRLSCAASGFTFSRHGMHWVRQAPGKGLEWVAVVWFDGSNIYYADSVKGRFTISRDNSKNTLYLQMNSLRAEDTAMYYCARDSRIAAADYWGQGTLVTVSS VL: SYELTQPPSVSVSPGQTVSITCSGDKLGDKYVCWYQQKPGQSPVLVIYQESKRPSGIPERFSGSSSGNTATLTISGTQAMDEADYYCQTWDSSLVVFGGGTKLTVL | – | – | – | – | – | 0.043 µg/mL | 0.224 µg/mL
5 | 2H10 IgG2 VH wt/VL C33S (antibody, V domains shown, IgG2) VH: QVQLVESGGGVVQPGRSLRLSCAASGFTFSRHGMHWVRQAPGKGLEWVAVVWFDGSNIYYADSVKGRFTISRDNSKNTLYLQMNSLRAEDTAMYYCARDSRIAAADYWGQGTLVTVSS VL: SYELTQPPSVSVSPGQTVSITCSGDKLGDKYVSWYQQKPGQSPVLVIYQESKRPSGIPERFSGSSSGNTATLTISGTQAMDEADYYCQTWDSSLVVFGGGTKLTVL | – | – | – | – | – | 0.031 µg/mL | 0.084 µg/mL

— US20100196385A1 (AstraZeneca / MedImmune, published 2010)
